Test results taken from patent US20210403583A1 (ELIXIRON IMMUNOTHERAPEUTICS HONG KONG, published 2021).
Read-outs that look alike come from different tables or passages of the source.

T1: cynomolgus CSF1R expressed on 293F cells (cynomolgus monkey, UniProt P07333 20-972 (human entry))
T1 construct: also called cynoCSF1R
T1 chain: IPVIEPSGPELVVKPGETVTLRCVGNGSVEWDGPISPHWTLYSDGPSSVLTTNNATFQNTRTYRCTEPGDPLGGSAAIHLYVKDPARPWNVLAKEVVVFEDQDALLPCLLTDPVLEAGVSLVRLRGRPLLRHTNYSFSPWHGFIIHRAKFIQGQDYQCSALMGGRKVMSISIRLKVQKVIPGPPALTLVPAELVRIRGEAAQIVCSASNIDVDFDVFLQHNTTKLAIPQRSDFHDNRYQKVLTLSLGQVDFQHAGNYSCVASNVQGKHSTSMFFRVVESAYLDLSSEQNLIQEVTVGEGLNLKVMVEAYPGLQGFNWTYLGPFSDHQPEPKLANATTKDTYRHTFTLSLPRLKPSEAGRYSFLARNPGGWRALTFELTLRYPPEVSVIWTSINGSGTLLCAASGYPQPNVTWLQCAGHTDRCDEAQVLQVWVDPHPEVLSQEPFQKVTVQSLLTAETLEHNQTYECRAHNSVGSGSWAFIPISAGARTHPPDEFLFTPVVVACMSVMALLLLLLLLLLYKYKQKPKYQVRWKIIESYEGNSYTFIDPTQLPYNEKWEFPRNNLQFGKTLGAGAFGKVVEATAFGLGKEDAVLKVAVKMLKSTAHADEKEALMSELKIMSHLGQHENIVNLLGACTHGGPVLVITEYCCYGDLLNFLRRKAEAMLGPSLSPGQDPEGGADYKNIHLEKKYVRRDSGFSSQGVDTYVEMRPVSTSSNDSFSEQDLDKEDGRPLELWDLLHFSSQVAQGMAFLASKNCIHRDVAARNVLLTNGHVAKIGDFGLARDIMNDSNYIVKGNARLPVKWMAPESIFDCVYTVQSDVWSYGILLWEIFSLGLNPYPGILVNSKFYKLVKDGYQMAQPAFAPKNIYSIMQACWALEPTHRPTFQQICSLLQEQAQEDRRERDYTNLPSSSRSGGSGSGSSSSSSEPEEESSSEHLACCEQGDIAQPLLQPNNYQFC


How the values were obtained:
[1] = biological target: T2, human CSF1R expressed on cells (293F/huCSF1R stable cells; AML5 cells; human monocytes and macrophages) (human, UniProt P07333 20-972); assay: cell-based or functional assay
[2] = biological target: T3, recombinant human CSF1R-Fc fusion protein (human, UniProt P07333 20-512); assay: ELISA, coated human CSF1R-Fc (dimer)
T3 construct: probably the same protein; also called CSF1R-Fc (dimer); not shown: Fc part
T3 sequence (P07333 20-512 limits assumed): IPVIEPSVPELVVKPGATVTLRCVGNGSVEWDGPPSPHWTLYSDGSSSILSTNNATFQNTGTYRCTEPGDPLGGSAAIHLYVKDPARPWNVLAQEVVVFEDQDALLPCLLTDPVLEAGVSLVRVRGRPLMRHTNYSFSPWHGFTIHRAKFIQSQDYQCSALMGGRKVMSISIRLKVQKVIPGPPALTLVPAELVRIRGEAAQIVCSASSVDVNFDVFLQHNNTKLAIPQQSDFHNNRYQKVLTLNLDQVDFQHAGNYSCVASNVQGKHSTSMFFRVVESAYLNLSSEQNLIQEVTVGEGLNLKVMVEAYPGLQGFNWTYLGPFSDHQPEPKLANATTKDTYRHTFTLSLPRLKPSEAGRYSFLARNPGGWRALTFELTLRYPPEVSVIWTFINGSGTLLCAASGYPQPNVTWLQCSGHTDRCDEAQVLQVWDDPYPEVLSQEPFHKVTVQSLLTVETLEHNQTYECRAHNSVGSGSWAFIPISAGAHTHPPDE
Procedure: (§1) Materials and methods: Recombinant human CSF1R-His (Biolegend), or CSF1R-Fc fusion protein, were immobilized on 96 well microtiter plate at a concentration of 1 μg/mL in Coating Solution (SeraCare) overnight at 4° C. The wells were washed with wash solution (0.05% Tween20 in imidazole-buffered saline) and blocked with 1% BSA. Serial dilutions of the antibodies were added to wells. After incubation at 3TC for 1 h, the wells were washed with wash solution. Peroxidase-conjugated goat anti-human kappa light chain antibody (Bethyl) was applied to each well at 3TC for 1 h incubation. After washing, the wells were developed with TMB substrate for 5-10 min at RT and then stopped with 1 N HCl. Thereafter absorbance was measured at 450 nm and 650 nm. The EC50 values were calculated through GraphPad Prism7.

[3] = biological target: T2, human CSF1R expressed on cells …; assay: cell-based or functional assay; remark: listed apart in the source
[4] = biological target: T2, human CSF1R expressed on cells …; assay: cell-based or functional assay; remark: listed apart in the source
[5] = biological target: T4, recombinant human CSF1R-His (Biolegend) (human, UniProt P07333 20-512, limits assumed); assay: ELISA, coated human CSF1R-His (monomer)
T4 construct: Bought protein; also called CSF1R-His (monomer); hu-CSF1R; not shown: His tag
T4 sequence (P07333 20-512 limits assumed): as above
Procedure: as §1

[6] = biological target: T4, recombinant human CSF1R-His (Biolegend); assay: BLI (Octet RED96), antibody captured on AHC biosensor, CSF1R-His in solution, 1:1 model
Procedure: Kinetic rate constants, ka and kd, for binding of 6D4 and 6M6 to CSF1R were measured by Bio-Layer Interferometry (BLI) (ForteBio Octet RED96). The BLI assay was performed using AHC (Anti-hIgG Fc Capture) biosensors (ForteBio) to capture each anti-CSF1R antibody (2 μg/mL) to acquire a 0.5 nm shift and then the biosensors were dipped into varying concentrations (i.e. 0, 0.549, 1.65, 4.94, 14.8, 44.4, 133.3 and 400 nM) of recombinant CSF1R-His protein in running buffer containing PBS-Tween 20 (0.1%), BSA (0.1%). Rate constants were calculated by curve fitting analyses (1:1 Langmuir model) of binding response with a 5-minute association and 15-minute dissociation interaction time.

[7] = biological target: T1, cynomolgus CSF1R expressed on 293F cells; assay: flow cytometry titration on 293F cells overexpressing cynomolgus CSF1R, anti-human IgG-Alexa Fluor 647
Excerpt: Materials and methods: The gene segments encoding full-length human CSF1R or cynomolgus CSF1R were obtained using Thermo gene synthesis service and cloned in a mammalian expression vector pCDNA3.4. […] After washing with FACS buffer (2%FBS in PBS), the cells were stained with anti-human IgG-Alexa Fluor 647 and analyzed by Attune N×T Flow Cytometer (Thermo Scientific).

[8] = biological target: T3, recombinant human CSF1R-Fc fusion …; assay: ELISA, coated human CSF1R-Fc
Procedure: Materials and methods: Recombinant human CSF1R-Fc, or mouse CSF1R-Fc (Sino Biological) were immobilized on 96 well microtiter plate at a concentration of 1 μg/mL in Coating Solution (SeraCare) overnight at 4° C. The wells were washed with wash solution (0.05% Tween20 in imidazole-buffered saline) and blocked with 1% BSA. Serial dilutions of the anti-CSF1R/IL-10 fusion proteins were added to wells. After incubation at 3TC for 1 h, the wells were washed with wash solution. To detect chimeric Ab/IL10 fusions, peroxidase-conjugated goat anti-human kappa light chain antibody (Bethyl) was applied to each well at 3TC for 1 h incubation. To detect AB98 or AB98/1110 fusions, peroxidase-conjugated Goat anti-mouse IgG Fab antibody (Jackson immunoresearch) was applied to each well at 3TC for 1 h incubation. After washing, the wells were developed with TMB substrate for 5-10 min at RT and then stopped with 1 N HCl. Thereafter absorbance was measured at 450 nm and 650 nm.

[9] = biological target: T2, human CSF1R expressed on cells …; assay: cell-based or functional assay; remark: listed apart in the source
[10] = biological target: T2, human CSF1R expressed on cells …; assay: cell-based or functional assay; remark: listed apart in the source
[11] = biological target: T3, recombinant human CSF1R-Fc fusion …; assay: competition ELISA, coated human CSF1R-Fc, competitor biotinylated CSF1-His 2.5 ug/mL
Procedure: Materials and methods: Recombinant human CSF1R-Fc fusion protein was immobilized on 96 well microtiter plate at a concentration of 1 μg/mL in Coating Solution (SeraCare) overnight at 4° C. The wells were washed with wash solution and blocked with 1% BSA at RT. Serial dilutions of the antibodies were added to wells. Then 2.5 ug/mL biotinylated CSF1-His (Biolegend) was added and incubated for 1 h at 37° C. After washing, Streptavidin-HRP (Jackson ImmunoResearch) was applied to wells at RT for 1 h incubation. After washing, the wells were developed with TMB substrate for 5-10 min at RT and the stopped with 1 N HCl. Thereafter absorbance was measured at 450 nm and 650 nm. The IC₅₀ values were calculated through GraphPad Prism7.

[12] = biological target: T4, recombinant human CSF1R-His (Biolegend); assay: ELISA, coated human CSF1R-His (monomer); remark: listed apart in the source
Procedure: as §1, with “protein” for “protein,”, “Hybridoma culture supernatants or serial” for “Serial”, “of” for “of the”, “37° C.” for “3TC”, “EC₅₀” for “EC50”

[13] = biological target: T3, recombinant human CSF1R-Fc fusion …; assay: ELISA, coated human CSF1R-Fc (dimer); remark: listed apart in the source
Procedure: as §1, with “protein” for “protein,”, “Hybridoma culture supernatants or serial” for “Serial”, “of” for “of the”, “37° C.” for “3TC”, “EC₅₀” for “EC50”

Binder	EC50 [2]	IC50 (M), CSF1-dependent AML5 cell proliferation [3]	EC50 [5]	binding result [7]	EC50 [8]	IC50 (M), inhibition of AML5 cell proliferation (CSF1-dependent) [9]	IC50 (M), inhibition of macrophage survival (CSF1-dependent) [10]	further results
chimeric anti-CSF1R antibody 6D4 (antibody, human IgG1, kappa) heavy: not shown light: DIQMNQSPSSLSASLGDTITITCHASQNINVWLSWYQQKPGNIPKLLIYKASNLHTGVPSRFSGSGSGTGFTLTISSLQPEDIATYYCQQGQSYPYTFGGGTKLEIKRTVAAPSVFIFPPSDEQLKSGTASVVCLLNNFYPREAKVQWKVDNALQSGNSQESVTEQDSKDSTYSLSSTLTLSKADYEKHKVYACEVTHQGLSSPVTKSFNRGEC	0.381 nM	4.62e-10 M	0.531 nM	–	–	–	–	IC50 (M), CSF1-dependent AML5 cell proliferation [1]: 4.62e-10 M; IC50 (M), IL-34-dependent AML5 cell proliferation [1]: 3.49e-10 M; IC50 (M), CSF1-dependent survival of CD14+ monocytes [4]: 5.58e-10 M; IC50 (M), CSF1-dependent survival of macrophages [4]: 1.38e-10 M; Kd [6]: 3.42 nM; koff [6]: 0.000946 s⁻¹; kon [6]: 277000 M⁻¹ s⁻¹
humanized anti-CSF1R antibody 6M6.hu12 (antibody, human IgG1, kappa, Humanized version of 6M6; also called 6M6.hul2) heavy: not shown light: DIVLTQSPDSLAVSLGERATINCKASQGVDYAGDSYMNWYQQKPGQPPKLLIYVASDLDSGIPDRFSGSGSGTDFTLTISSLQAEDVATYYCQQSYEDPRTFGGGTTLEIKRTVAAPSVFIFPPSDEQLKSGTASVVCLLNNFYPREAKVQWKVDNALQSGNSQESVTEQDSKDSTYSLSSTLTLSKADYEKHKVYACEVTHQGLSSPVTKSFNRGEC	0.0613 nM	5.46e-10 M	0.103 nM	–	–	–	–	–
humanized anti-CSF1R antibody 6M6.hu41 (antibody, human IgG1, kappa, Humanized version of 6M6) heavy: not shown light: DIVLTQSPDSLAVSLGERATINCKASQGVDYAGDSYMNWYQQKPGQPPKLLIYVASDLDSGVPDRFSGSGSGTDFTLTISSLQAEDVATYYCQQSYEDPRTFGGGTTLEIKRTVAAPSVFIFPPSDEQLKSGTASVVCLLNNFYPREAKVQWKVDNALQSGNSQESVTEQDSKDSTYSLSSTLTLSKADYEKHKVYACEVTHQGLSSPVTKSFNRGEC	0.065 nM	4.3e-10 M	0.107 nM	–	–	–	–	–
humanized anti-CSF1R/IL10 fusion protein 6M6.hu12/IL10 (antibody, human IgG1, kappa, Antibody-cytokine fusion: human IL10 fused by a linker to the C-terminus of the heavy chain) heavy: not shown light: DIVLTQSPDSLAVSLGERATINCKASQGVDYAGDSYMNWYQQKPGQPPKLLIYVASDLDSGIPDRFSGSGSGTDFTLTISSLQAEDVATYYCQQSYEDPRTFGGGTTLEIKRTVAAPSVFIFPPSDEQLKSGTASVVCLLNNFYPREAKVQWKVDNALQSGNSQESVTEQDSKDSTYSLSSTLTLSKADYEKHKVYACEVTHQGLSSPVTKSFNRGEC	–	–	–	binds	0.252 nM	1.61e-09 M	1.49e-10 M	–
humanized anti-CSF1R/IL10 fusion protein 6M6.hu41/IL10 (antibody, human IgG1, kappa, Antibody-cytokine fusion: human IL10 fused by a linker to the C-terminus of the heavy chain; also called 6M6.hu41/1L10) heavy: not shown light: DIVLTQSPDSLAVSLGERATINCKASQGVDYAGDSYMNWYQQKPGQPPKLLIYVASDLDSGVPDRFSGSGSGTDFTLTISSLQAEDVATYYCQQSYEDPRTFGGGTTLEIKRTVAAPSVFIFPPSDEQLKSGTASVVCLLNNFYPREAKVQWKVDNALQSGNSQESVTEQDSKDSTYSLSSTLTLSKADYEKHKVYACEVTHQGLSSPVTKSFNRGEC	–	–	–	binds	0.205 nM	8.93e-10 M	1.84e-10 M	–
hy6D4 (antibody, V domains shown, Mouse hybridoma antibody; also called anti-CSF1R antibody purified from hybridoma supernatant hy6D4) VH: EIQLQQSGAELVKPRASVKISCEASGYSFTGYNMNWVKQSPGKSLEWIGDINPYYGATTYNQKFKGKATLTVDKSSSTAYMQLNSLTSEDSAVYYCARRGDYGDYEGWYFDVWGAGTTVTVSS VL: DIQMNQSPSSLSASLGDTITITCHASQNINVWLSWYQQKPGNIPKLLIYKASNLHTGVPSRFSGSGSGTGFTLTISSLQPEDIATYYCQQGQSYPYTFGGGTKLEIK	–	–	–	–	–	–	–	IC50 [11]: 1.76 nM; EC50 [12]: 0.531 nM; EC50 [13]: 0.381 nM
